According to publication PMC9482650, “Quantitative fragmentomics allow affinity mapping of interactomes” (Nature Communications, 2022):

T1: GRIP1_2, Q9Y3R0
T1 sequence (Q9Y3R0 145-248, limits assumed, looked up): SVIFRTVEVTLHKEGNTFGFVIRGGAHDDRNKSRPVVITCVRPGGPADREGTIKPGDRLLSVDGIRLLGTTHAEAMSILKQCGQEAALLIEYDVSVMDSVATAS

T2: NHERF3_1, Q5T2W1
T2 sequence (Q5T2W1 4-100, limits assumed, looked up): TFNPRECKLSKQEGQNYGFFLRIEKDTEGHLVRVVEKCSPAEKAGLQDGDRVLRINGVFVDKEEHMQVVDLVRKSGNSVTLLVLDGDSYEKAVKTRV

T3: DFNB31_1, Q9P202
T3 sequence (Q9P202 135-233, limits assumed, looked up): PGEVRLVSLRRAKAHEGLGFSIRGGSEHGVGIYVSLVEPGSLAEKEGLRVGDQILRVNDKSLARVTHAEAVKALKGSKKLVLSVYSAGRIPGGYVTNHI

T4: PTPN13_1, Q12923
T4 sequence (Q12923 1088-1188, limits assumed, looked up): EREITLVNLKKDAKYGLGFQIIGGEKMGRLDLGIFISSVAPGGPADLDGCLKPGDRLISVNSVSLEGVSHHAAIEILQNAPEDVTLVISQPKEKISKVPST

T5: MPDZ_10, O75970
T5 sequence (O75970 1624-1722, limits assumed, looked up): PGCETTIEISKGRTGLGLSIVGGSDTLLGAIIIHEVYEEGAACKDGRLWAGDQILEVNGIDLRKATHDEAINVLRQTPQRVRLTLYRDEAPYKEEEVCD

T6: APBA2_2, Q99767
T6 sequence (Q99767 654-744, limits assumed, looked up): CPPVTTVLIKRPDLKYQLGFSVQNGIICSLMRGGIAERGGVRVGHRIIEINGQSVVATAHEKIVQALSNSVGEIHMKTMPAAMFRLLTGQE

T7: PDZRN3_1, Q9UPQ7
T7 sequence (Q9UPQ7 244-349, limits assumed, looked up): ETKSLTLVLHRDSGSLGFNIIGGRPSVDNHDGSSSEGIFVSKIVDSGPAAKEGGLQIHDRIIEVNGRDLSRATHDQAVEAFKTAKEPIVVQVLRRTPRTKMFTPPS

T8: PARD3B_1, Q8TEW8
T8 sequence (Q8TEW8 196-299, limits assumed, looked up): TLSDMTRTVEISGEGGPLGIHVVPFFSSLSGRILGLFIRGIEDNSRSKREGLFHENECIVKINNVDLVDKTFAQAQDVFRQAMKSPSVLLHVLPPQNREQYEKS

T9: TIAM2, Q8IVF5
T9 sequence (Q8IVF5 885-986, limits assumed, looked up): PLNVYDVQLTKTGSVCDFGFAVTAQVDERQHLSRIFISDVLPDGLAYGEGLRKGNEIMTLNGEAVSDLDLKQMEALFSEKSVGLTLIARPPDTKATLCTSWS

T10: APBA2_1, Q99767
T10 sequence (Q99767 563-664, limits assumed, looked up): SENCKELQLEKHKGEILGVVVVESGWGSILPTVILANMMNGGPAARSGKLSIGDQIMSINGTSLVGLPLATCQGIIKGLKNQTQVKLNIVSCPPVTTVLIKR

T11: SNTG2, Q9NY99
T11 sequence (Q9NY99 68-166, limits assumed, looked up): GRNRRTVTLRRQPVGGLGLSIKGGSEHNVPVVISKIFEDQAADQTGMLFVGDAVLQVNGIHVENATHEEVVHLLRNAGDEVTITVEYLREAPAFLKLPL


How the values were obtained:
Test in all cases: holdup assay
Design in all cases: key: below the threshold = too weak to quantify, mostly under pKd 3.1 to 4
Settings in all cases: plain residues with an end cap or a label only (N-terminal biotin on a linker: ado-ado)
[1] = biological target: T1, GRIP1_2, Q9Y3R0
[2] = biological target: T2, NHERF3_1, Q5T2W1
[3] = biological target: PARD3_3, Q8TEW0
[4] = biological target: LNX1_2, Q8TBB1
[5] = biological target: GORASP1, Q9BQQ3
[6] = biological target: T3, DFNB31_1, Q9P202
[7] = biological target: LNX1_1, Q8TBB1
[8] = biological target: T4, PTPN13_1, Q12923
[9] = biological target: Inadl_2, Q8NI35
[10] = biological target: FRMPD2_3, Q68DX3
[11] = biological target: NHERF2_2, Q15599
[12] = biological target: GRIP2_4, Q9C0E4
[13] = biological target: T5, MPDZ_10, O75970
[14] = biological target: MAGI1_1, Q96QZ7
[15] = biological target: GRIP2_3, Q9C0E4
[16] = biological target: FRMPD3, Q5JV73
[17] = biological target: T6, APBA2_2, Q99767
[18] = biological target: HTRA2, O43464
[19] = biological target: T7, PDZRN3_1, Q9UPQ7
[20] = biological target: T8, PARD3B_1, Q8TEW8
[21] = biological target: DLG4_1, P78352
[22] = biological target: T9, TIAM2, Q8IVF5
[23] = biological target: GRIP2_6, Q9C0E4
[24] = biological target: GRIP2_5, Q9C0E4
[25] = biological target: T10, APBA2_1, Q99767
[26] = biological target: LAP2, Q96RT1
[27] = biological target: T11, SNTG2, Q9NY99

Sequence of Inadl_2, Q8NI35 (Q8NI35 238-335): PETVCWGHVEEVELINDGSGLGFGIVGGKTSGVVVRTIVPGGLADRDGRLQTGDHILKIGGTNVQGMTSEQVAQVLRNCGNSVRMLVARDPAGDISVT
Sequence of PARD3_3, Q8TEW0 (Q8TEW0 582-685): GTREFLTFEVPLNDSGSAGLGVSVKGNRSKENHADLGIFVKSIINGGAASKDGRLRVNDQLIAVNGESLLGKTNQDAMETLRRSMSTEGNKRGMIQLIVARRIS
Sequence of LAP2, Q96RT1 (Q96RT1 other isoform, or with tags, fused parts or gaps): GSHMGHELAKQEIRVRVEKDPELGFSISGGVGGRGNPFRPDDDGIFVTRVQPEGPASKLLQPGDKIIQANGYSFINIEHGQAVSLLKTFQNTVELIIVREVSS
Sequence of FRMPD2_3, Q68DX3 (Q68DX3 1073-1166): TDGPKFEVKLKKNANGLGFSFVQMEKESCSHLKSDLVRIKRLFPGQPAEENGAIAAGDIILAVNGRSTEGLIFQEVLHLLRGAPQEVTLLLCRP
Sequence of LNX1_1, Q8TBB1 (Q8TBB1 261-371): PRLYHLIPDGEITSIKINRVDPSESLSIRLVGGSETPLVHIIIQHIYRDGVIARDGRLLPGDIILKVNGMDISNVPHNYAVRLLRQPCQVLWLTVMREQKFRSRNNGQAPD
Sequence of LNX1_2, Q8TBB1 (Q8TBB1 371-470): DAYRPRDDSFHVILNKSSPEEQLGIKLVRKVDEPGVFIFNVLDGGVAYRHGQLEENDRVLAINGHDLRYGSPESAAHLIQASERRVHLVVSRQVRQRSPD
Sequence of DLG4_1, P78352 (P78352 62-152): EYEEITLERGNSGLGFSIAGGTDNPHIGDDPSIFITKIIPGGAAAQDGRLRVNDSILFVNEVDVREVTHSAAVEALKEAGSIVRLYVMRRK
Sequence of GORASP1, Q9BQQ3 (Q9BQQ3 1-208): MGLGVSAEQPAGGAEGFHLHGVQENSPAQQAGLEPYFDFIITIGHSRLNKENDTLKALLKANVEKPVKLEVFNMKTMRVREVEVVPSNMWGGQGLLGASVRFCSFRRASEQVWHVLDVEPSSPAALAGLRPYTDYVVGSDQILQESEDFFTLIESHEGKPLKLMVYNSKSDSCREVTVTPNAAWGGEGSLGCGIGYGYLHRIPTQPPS
Sequence of MAGI1_1, Q96QZ7 (Q96QZ7 1-106): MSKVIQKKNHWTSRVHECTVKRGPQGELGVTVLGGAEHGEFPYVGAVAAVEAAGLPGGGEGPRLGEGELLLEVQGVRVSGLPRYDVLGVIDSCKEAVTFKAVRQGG
Sequence of HTRA2, O43464 (O43464 355-458): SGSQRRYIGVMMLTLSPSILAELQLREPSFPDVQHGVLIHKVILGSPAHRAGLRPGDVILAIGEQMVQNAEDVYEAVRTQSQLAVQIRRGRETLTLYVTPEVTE
Sequence of NHERF2_2, Q15599 (Q15599 142-238): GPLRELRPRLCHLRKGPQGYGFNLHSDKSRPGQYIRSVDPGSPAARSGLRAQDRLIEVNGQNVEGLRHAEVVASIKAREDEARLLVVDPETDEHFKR
Sequence of GRIP2_6, Q9C0E4 (Q9C0E4 648-740): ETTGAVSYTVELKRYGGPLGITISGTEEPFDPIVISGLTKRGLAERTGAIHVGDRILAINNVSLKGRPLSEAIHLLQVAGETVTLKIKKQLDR
Sequence of GRIP2_4, Q9C0E4 (Q9C0E4 446-548): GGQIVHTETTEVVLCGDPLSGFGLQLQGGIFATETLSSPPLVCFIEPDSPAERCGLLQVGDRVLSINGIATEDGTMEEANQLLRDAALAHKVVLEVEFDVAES
Sequence of GRIP2_3, Q9C0E4 (Q9C0E4 238-339): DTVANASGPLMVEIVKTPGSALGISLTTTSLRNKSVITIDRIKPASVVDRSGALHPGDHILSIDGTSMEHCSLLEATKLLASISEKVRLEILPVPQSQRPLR
Sequence of GRIP2_5, Q9C0E4 (Q9C0E4 544-642): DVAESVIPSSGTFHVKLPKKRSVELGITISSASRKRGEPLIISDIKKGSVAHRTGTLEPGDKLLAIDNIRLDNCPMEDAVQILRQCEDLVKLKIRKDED
Sequence of FRMPD3, Q5JV73 (Q5JV73 12-100): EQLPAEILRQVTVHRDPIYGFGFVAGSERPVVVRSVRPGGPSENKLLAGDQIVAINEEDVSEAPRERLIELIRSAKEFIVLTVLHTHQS

Binder	pKd [1]	pKd [2]	pKd [3]	pKd [4]	pKd [5]	pKd [6]	pKd [7]	pKd [8]	pKd [9]	pKd [10]	pKd [11]	pKd [12]	pKd [13]	pKd [14]	pKd [15]	pKd [16]	pKd [17]	pKd [18]	pKd [19]	pKd [20]	also measured
HLSTRQGTCV [ATRNL1, Q5VV63]	below the threshold	3.87	below the threshold	3.71	3.47	3.51	4.34	below the threshold	below the threshold	below the threshold	below the threshold	below the threshold	3.75	below the threshold	below the threshold	below the threshold	below the threshold	below the threshold	3.97	below the threshold	pKd [21]: 4.33; pKd [22]: below the threshold; pKd [23]: below the threshold; pKd [24]: below the threshold; pKd [25]: below the threshold; pKd [26]: 3.94; pKd [27]: 3.67
HYPASPDSWV [CTNND2, Q9UQB3]	below the threshold	below the threshold	3.92	3.8	3.93	4.34	4.12	below the threshold	below the threshold	below the threshold	3.84	below the threshold	below the threshold	below the threshold	below the threshold	3.71	below the threshold	4.12	3.83	3.52	pKd [21]: 4.37; pKd [22]: below the threshold; pKd [23]: below the threshold; pKd [24]: below the threshold; pKd [25]: below the threshold; pKd [26]: 5.58; pKd [27]: 3.72
VCMGDHWFDV [PRKN, O60260]	below the threshold	below the threshold	4.25	4.07	4.06	below the threshold	3.94	below the threshold	3.51	3.58	below the threshold	below the threshold	below the threshold	below the threshold	below the threshold	4.15	below the threshold	3.96	below the threshold	4.78	pKd [21]: below the threshold; pKd [22]: below the threshold; pKd [23]: 3.79; pKd [24]: below the threshold; pKd [25]: below the threshold; pKd [26]: 3.67; pKd [27]: below the threshold
QRYPGNQTTC [CCL24, O00175]	below the threshold	below the threshold	below the threshold	3.49	below the threshold	below the threshold	3.78	below the threshold	below the threshold	below the threshold	below the threshold	below the threshold	below the threshold	below the threshold	below the threshold	below the threshold	below the threshold	below the threshold	below the threshold	below the threshold	pKd [21]: below the threshold; pKd [22]: 4.09; pKd [23]: below the threshold; pKd [24]: below the threshold; pKd [25]: below the threshold; pKd [26]: below the threshold; pKd [27]: below the threshold
KLQNPNQSVV [TYRP1, P17643]	below the threshold	below the threshold	below the threshold	below the threshold	3.53	3.61	3.86	below the threshold	below the threshold	below the threshold	below the threshold	below the threshold	3.54	below the threshold	below the threshold	below the threshold	below the threshold	below the threshold	below the threshold	below the threshold	pKd [21]: 3.91; pKd [22]: below the threshold; pKd [23]: below the threshold; pKd [24]: below the threshold; pKd [25]: below the threshold; pKd [26]: below the threshold; pKd [27]: 3.64
